Laboratory results taken from patent US20260055162A1.
Blank lines part the entries; values can stand above or below the substance they belong to.

How the values were obtained:
Assay in all cases: cell-based or functional assay
[1] = target: AA-SR-105 (SR-105), Fas ECD-Fas TM-CD3z ICD
[2] = target: AA-SR-120 (SR-120), Fas ECD-CD28 TM-CD3z ICD
[3] = target: AA-SR-100 (SR-100), BTLA ECD-BTLA TM-CD3z ICD
[4] = target: AA-SR-115 (SR-115), BTLA ECD-CD28 TM-CD3z ICD
[5] = target: AA-SR-112 (SR-112), TACTILE ECD-TACTILE TM-CD3z ICD
Chain of AA-SR-112 (SR-112), TACTILE ECD-TACTILE TM-CD3z ICD (chain, as listed by the source limits assumed, form in doubt): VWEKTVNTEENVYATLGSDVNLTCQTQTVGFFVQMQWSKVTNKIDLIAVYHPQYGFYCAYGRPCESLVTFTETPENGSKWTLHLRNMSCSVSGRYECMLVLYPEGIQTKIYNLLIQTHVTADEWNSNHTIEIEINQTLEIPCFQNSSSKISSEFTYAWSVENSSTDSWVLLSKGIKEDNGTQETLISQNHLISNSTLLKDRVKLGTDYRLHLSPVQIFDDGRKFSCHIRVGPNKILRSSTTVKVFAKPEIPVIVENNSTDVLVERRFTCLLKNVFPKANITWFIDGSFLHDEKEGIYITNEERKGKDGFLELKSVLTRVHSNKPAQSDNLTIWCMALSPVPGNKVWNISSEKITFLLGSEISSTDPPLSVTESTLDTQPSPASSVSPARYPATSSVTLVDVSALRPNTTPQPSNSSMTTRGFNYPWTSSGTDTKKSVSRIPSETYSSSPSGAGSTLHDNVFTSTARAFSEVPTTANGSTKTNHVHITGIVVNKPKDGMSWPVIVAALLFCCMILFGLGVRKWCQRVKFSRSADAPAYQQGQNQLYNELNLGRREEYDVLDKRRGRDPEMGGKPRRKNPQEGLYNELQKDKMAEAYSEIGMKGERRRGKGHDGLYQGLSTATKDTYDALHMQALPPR

[6] = target: AA-SR-127 (SR-127), TACTILE ECD-CD28 TM-CD3z ICD
Chain of AA-SR-127 (SR-127), TACTILE ECD-CD28 TM-CD3z ICD (chain, as listed by the source limits assumed, form in doubt): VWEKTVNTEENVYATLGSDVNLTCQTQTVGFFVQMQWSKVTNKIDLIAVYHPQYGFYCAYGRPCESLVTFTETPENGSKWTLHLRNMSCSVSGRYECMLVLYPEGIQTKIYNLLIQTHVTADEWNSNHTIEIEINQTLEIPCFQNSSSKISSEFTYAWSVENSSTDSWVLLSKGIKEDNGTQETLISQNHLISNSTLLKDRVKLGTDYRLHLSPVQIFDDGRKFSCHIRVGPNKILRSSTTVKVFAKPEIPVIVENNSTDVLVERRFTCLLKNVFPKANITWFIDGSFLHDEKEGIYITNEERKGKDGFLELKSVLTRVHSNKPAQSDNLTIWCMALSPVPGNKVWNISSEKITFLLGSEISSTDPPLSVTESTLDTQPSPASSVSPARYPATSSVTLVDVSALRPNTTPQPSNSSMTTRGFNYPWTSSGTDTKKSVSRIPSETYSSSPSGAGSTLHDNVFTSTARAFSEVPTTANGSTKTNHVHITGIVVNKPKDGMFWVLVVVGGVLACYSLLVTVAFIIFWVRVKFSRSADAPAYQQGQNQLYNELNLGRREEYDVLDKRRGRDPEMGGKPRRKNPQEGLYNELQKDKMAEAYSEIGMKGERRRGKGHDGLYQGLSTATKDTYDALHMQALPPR

[7] = target: AA-SR-102 (SR-102), CD200R ECD-CD200R TM-CD3z ICD
Chain of AA-SR-102 (SR-102), CD200R ECD-CD200R TM-CD3z ICD (chain, as listed by the source limits assumed, form in doubt): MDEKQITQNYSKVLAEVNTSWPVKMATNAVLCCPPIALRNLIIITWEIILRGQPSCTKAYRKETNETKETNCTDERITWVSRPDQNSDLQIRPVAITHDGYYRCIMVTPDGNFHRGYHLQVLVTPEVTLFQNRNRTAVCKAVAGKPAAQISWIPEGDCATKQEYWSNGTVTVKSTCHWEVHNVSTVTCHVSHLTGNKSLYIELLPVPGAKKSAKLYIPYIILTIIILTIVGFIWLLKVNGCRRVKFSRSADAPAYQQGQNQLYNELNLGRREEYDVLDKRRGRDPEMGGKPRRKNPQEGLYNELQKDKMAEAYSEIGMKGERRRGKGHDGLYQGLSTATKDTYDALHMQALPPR

[8] = target: AA-SR-117 (SR-117), CD200R ECD-CD28 TM-CD3z ICD
Chain of AA-SR-117 (SR-117), CD200R ECD-CD28 TM-CD3z ICD (chain, as listed by the source limits assumed, form in doubt): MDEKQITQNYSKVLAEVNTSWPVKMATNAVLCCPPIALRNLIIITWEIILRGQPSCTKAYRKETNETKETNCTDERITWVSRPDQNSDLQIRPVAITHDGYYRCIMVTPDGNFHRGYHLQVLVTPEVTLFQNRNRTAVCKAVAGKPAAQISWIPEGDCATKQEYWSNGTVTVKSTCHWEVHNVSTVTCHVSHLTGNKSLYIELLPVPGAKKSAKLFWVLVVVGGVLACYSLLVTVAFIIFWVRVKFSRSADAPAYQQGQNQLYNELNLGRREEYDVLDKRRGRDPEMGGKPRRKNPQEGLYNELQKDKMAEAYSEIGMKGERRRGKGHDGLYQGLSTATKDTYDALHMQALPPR

[9] = target: AA-SR-104 (SR-104), CTLA4 ECD-CTLA4 TM-CD3z ICD
Chain of AA-SR-104 (SR-104), CTLA4 ECD-CTLA4 TM-CD3z ICD (chain, as listed by the source limits assumed, form in doubt): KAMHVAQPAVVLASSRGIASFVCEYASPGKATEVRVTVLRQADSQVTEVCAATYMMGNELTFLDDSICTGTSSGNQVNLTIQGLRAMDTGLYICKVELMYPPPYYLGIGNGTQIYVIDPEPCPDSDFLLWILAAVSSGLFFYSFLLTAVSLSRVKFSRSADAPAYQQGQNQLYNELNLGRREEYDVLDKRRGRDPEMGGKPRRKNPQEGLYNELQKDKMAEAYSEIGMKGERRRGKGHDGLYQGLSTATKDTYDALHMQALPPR

[10] = target: AA-SR-119 (SR-119), CTLA4 ECD-CD28 TM-CD3z ICD
Chain of AA-SR-119 (SR-119), CTLA4 ECD-CD28 TM-CD3z ICD (chain, as listed by the source limits assumed, form in doubt): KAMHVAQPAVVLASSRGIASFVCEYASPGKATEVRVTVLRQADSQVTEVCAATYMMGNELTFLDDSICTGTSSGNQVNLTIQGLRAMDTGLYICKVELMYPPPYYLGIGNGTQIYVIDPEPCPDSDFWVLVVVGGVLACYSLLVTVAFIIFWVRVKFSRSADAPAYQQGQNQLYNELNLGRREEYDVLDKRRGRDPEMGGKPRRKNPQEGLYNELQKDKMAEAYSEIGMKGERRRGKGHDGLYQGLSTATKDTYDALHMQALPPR

Chain of AA-SR-100 (SR-100), BTLA ECD-BTLA TM-CD3z ICD (chain, as listed by the source limits assumed, form in doubt): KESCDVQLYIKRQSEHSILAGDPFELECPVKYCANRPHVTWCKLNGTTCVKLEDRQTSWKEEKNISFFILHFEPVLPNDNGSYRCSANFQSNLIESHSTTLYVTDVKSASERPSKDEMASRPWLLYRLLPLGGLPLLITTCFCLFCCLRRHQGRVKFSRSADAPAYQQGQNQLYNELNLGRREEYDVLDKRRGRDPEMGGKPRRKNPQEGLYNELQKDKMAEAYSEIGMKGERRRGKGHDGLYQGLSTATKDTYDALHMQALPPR
Chain of FasL recombinant protein (P48023 134-281 limits assumed): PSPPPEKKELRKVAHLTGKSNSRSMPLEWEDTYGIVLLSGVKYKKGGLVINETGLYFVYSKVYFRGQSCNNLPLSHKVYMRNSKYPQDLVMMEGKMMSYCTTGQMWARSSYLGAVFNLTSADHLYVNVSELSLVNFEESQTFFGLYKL
Chain of AA-SR-120 (SR-120), Fas ECD-CD28 TM-CD3z ICD (chain, as listed by the source limits assumed, form in doubt): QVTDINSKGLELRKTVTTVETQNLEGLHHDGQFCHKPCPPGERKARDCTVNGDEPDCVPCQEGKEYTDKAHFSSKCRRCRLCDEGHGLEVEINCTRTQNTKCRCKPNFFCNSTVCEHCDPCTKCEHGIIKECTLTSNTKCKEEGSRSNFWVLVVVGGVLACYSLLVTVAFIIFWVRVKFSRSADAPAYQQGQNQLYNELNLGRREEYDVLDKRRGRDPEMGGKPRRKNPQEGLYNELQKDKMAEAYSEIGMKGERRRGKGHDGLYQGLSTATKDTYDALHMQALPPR
Chain of AA-SR-105 (SR-105), Fas ECD-Fas TM-CD3z ICD (chain, as listed by the source limits assumed, form in doubt): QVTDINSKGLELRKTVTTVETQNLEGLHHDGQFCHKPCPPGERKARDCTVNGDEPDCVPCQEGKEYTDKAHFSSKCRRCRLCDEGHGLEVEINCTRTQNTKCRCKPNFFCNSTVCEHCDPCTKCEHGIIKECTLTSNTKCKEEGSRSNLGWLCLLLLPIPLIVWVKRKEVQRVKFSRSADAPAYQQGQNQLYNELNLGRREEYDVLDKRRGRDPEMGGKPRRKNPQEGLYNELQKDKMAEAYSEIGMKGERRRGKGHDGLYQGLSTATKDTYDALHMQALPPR
Chain of AA-SR-115 (SR-115), BTLA ECD-CD28 TM-CD3z ICD (chain, as listed by the source limits assumed, form in doubt): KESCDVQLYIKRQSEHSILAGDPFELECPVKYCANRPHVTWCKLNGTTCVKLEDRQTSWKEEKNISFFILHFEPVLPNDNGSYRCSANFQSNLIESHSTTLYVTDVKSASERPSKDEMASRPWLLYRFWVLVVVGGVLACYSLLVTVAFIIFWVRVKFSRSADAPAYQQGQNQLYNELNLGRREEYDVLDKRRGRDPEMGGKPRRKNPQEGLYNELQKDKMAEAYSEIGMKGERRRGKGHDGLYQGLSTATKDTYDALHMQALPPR

- CD69, fold-change of MFI over no stimulation, High (10 ug/mL) [1]: 70.2 fold
- CD69, fold-change of MFI over no stimulation, Low (0.4 ug/mL) [1]: 8.4 fold
- CD69, fold-change of MFI over no stimulation, Med. (2 ug/mL) [1]: 35.7 fold
- GFP, fold-change of MFI over no stimulation, High (10 ug/mL) [1]: 7.3 fold
- GFP, fold-change of MFI over no stimulation, Low (0.4 ug/mL) [1]: 1 fold
- GFP, fold-change of MFI over no stimulation, Med. (2 ug/mL) [1]: 4.6 fold
- CD69, fold-change of MFI over no stimulation, High (10 ug/mL) [2]: 162 fold
- CD69, fold-change of MFI over no stimulation, Low (0.4 ug/mL) [2]: 40.5 fold
- CD69, fold-change of MFI over no stimulation, Med. (2 ug/mL) [2]: 129 fold
- GFP, fold-change of MFI over no stimulation, High (10 ug/mL) [2]: 10.1 fold
- GFP, fold-change of MFI over no stimulation, Low (0.4 ug/mL) [2]: 2.4 fold
- GFP, fold-change of MFI over no stimulation, Med. (2 ug/mL) [2]: 11.2 fold
Substance: FasL recombinant protein (from UniProt P48023 134-281) (ligand)

- CD69, fold-change of MFI over no stimulation, High (10 ug/mL) [9]: 7.2 fold
- CD69, fold-change of MFI over no stimulation, Low (0.4 ug/mL) [9]: 3.1 fold
- CD69, fold-change of MFI over no stimulation, Med. (2 ug/mL) [9]: 5.6 fold
- GFP, fold-change of MFI over no stimulation, High (10 ug/mL) [9]: 4.3 fold
- GFP, fold-change of MFI over no stimulation, Low (0.4 ug/mL) [9]: 2.2 fold
- GFP, fold-change of MFI over no stimulation, Med. (2 ug/mL) [9]: 3.8 fold
- CD69, fold-change of MFI over no stimulation, High (10 ug/mL) [10]: 6.2 fold
- CD69, fold-change of MFI over no stimulation, Low (0.4 ug/mL) [10]: 2.7 fold
- CD69, fold-change of MFI over no stimulation, Med. (2 ug/mL) [10]: 4.5 fold
- GFP, fold-change of MFI over no stimulation, High (10 ug/mL) [10]: 5.9 fold
- GFP, fold-change of MFI over no stimulation, Low (0.4 ug/mL) [10]: 2.6 fold
- GFP, fold-change of MFI over no stimulation, Med. (2 ug/mL) [10]: 4.6 fold
Substance: anti-CTLA-4 mAb clone 1003705 (antibody)

The next lines start with the substance.

Substance: anti-BTLA mAb clone MIH26 (antibody)
- CD69, fold-change of MFI over no stimulation, High (10 ug/mL) [3]: 125 fold
- CD69, fold-change of MFI over no stimulation, Low (0.4 ug/mL) [3]: 62.7 fold
- CD69, fold-change of MFI over no stimulation, Med. (2 ug/mL) [3]: 124 fold
- GFP, fold-change of MFI over no stimulation, High (10 ug/mL) [3]: 13 fold
- GFP, fold-change of MFI over no stimulation, Low (0.4 ug/mL) [3]: 6.1 fold
- GFP, fold-change of MFI over no stimulation, Med. (2 ug/mL) [3]: 7.5 fold
- CD69, fold-change of MFI over no stimulation, High (10 ug/mL) [4]: 9.2 fold
- CD69, fold-change of MFI over no stimulation, Low (0.4 ug/mL) [4]: 10.8 fold
- CD69, fold-change of MFI over no stimulation, Med. (2 ug/mL) [4]: 14.1 fold
- GFP, fold-change of MFI over no stimulation, High (10 ug/mL) [4]: 3.5 fold
- GFP, fold-change of MFI over no stimulation, Low (0.4 ug/mL) [4]: 5.1 fold
- GFP, fold-change of MFI over no stimulation, Med. (2 ug/mL) [4]: 6.9 fold

Substance: anti-CD96 mAb clone NK92.39 (antibody)
- CD69, fold-change of MFI over no stimulation, High (10 ug/mL) [5]: 3.9 fold
- CD69, fold-change of MFI over no stimulation, Low (0.4 ug/mL) [5]: 3.3 fold
- CD69, fold-change of MFI over no stimulation, Med. (2 ug/mL) [5]: 1 fold
- GFP, fold-change of MFI over no stimulation, High (10 ug/mL) [5]: 1.2 fold
- GFP, fold-change of MFI over no stimulation, Low (0.4 ug/mL) [5]: 1 fold
- GFP, fold-change of MFI over no stimulation, Med. (2 ug/mL) [5]: 0.9 fold
- CD69, fold-change of MFI over no stimulation, High (10 ug/mL) [6]: 2 fold
- CD69, fold-change of MFI over no stimulation, Low (0.4 ug/mL) [6]: 1.1 fold
- CD69, fold-change of MFI over no stimulation, Med. (2 ug/mL) [6]: 1.1 fold
- GFP, fold-change of MFI over no stimulation, High (10 ug/mL) [6]: 1 fold
- GFP, fold-change of MFI over no stimulation, Low (0.4 ug/mL) [6]: 1 fold
- GFP, fold-change of MFI over no stimulation, Med. (2 ug/mL) [6]: 0.8 fold

Substance: anti-CD200R mAb clone OX-108 (antibody)
- CD69, fold-change of MFI over no stimulation, High (10 ug/mL) [7]: 29.2 fold
- CD69, fold-change of MFI over no stimulation, Low (0.4 ug/mL) [7]: 1.3 fold
- CD69, fold-change of MFI over no stimulation, Med. (2 ug/mL) [7]: 4.9 fold
- GFP, fold-change of MFI over no stimulation, High (10 ug/mL) [7]: 6.8 fold
- GFP, fold-change of MFI over no stimulation, Low (0.4 ug/mL) [7]: 0.8 fold
- GFP, fold-change of MFI over no stimulation, Med. (2 ug/mL) [7]: 1.4 fold
- CD69, fold-change of MFI over no stimulation, High (10 ug/mL) [8]: 8.7 fold
- CD69, fold-change of MFI over no stimulation, Low (0.4 ug/mL) [8]: 0.9 fold
- CD69, fold-change of MFI over no stimulation, Med. (2 ug/mL) [8]: 1.1 fold
- GFP, fold-change of MFI over no stimulation, High (10 ug/mL) [8]: 5.9 fold
- GFP, fold-change of MFI over no stimulation, Low (0.4 ug/mL) [8]: 1.1 fold
- GFP, fold-change of MFI over no stimulation, Med. (2 ug/mL) [8]: 0.9 fold
